Data published in patent US20260109782A1 (Chugai, published 2026).
Changes are numbered by the printed parent chain. Numbers in names are those of the source. One block for each binder: values may come before it.

Key:
Assay in all cases: cell-based or functional assay
[1] = target: coagulation factor IX / activated coagulation factor IX (human), P00740
[2] = target: human Factor X (Enzyme Research Laboratories, Inc.) (human, UniProt P00742 41-488)
[3] = target: coagulation factor IX / activated coagulation factor IX (human) (UniProt P00740)
Chain of coagulation factor IX / activated coagulation factor IX (human) (P00740 47-461): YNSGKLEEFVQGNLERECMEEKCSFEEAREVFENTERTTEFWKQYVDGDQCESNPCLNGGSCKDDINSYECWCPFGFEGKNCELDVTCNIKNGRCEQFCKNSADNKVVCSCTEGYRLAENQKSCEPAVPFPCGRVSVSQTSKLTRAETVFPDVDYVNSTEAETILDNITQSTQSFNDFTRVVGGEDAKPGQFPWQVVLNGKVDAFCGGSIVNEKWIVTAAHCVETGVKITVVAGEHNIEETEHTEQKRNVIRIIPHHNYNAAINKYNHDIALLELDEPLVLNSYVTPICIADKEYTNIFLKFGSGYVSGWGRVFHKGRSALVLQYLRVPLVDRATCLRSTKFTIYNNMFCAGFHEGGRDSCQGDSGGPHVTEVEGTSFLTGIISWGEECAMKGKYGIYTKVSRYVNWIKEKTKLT

Chain of human Factor X (Enzyme Research Laboratories, Inc.) (P00742 other isoform, or with tags, fused parts or gaps limits assumed): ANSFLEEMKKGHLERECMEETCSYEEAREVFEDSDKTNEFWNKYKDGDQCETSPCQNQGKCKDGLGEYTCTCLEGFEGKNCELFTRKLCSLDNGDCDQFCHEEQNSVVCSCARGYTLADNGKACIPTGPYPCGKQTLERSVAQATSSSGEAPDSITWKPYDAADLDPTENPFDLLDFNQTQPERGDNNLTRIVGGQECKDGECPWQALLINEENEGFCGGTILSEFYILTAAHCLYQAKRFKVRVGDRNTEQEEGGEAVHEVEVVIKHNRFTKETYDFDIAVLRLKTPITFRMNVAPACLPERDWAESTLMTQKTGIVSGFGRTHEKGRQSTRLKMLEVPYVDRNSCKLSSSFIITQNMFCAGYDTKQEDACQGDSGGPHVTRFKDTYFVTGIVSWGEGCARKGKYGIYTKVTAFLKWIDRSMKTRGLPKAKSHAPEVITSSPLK
Chain of coagulation factor IX / activated coagulation factor IX (human), P00740 (P00740 47-461): as the sequence (P00740 47-461) above

reduction of coagulation time against no antibody [2]: ≥ 80 s | reduction of coagulation time against no antibody [1]: > 80 s
B2: chimeric bispecific antibody (A69/B26/BBA) (bispecific antibody, V domains shown)
VH 1: MEVQLQQSGAELVKPGASVKLSCTASGFNIKDYYMHWIKQRPGQGLEWLGYINPSSGYTKYNRKFRDKATLTADKSSSTAYMQLTSLTYEDSAVYYCARGGNGYYLDYWGQGTTLTVSS
VH 2: MQVQLQQSGPELVKPGASVKISCKASGYTFTDNNMDWVKQSHGKGLEWIGDINTKSGGSIYNQKFKGKATLTIDKSSSTAYMELRSLTSEDTAVYYCARRRSYGYYFDYWGQGTTLTVSS
VL: DIVMTQSHKFMSTSVGDRVSITCKASQNVGTAVAWYQQKPGQSPKLLIYSASYRYSGVPDRFTGSRYGTDFTLTISNVQSEDLADYLCQQYSNYITFGGGTKLELKR

reduction of coagulation time against no antibody [3]: > 50 s | reduction of coagulation time against no antibody [2]: ≥ 50 s
B4: A44/B26 (bispecific antibody, V domains shown)
VH 1: MQVQLQQSGAELAKPGASVKLSCKASGYTFTSSWMHWIKQRPGQGLEWLGYINPSSGYTKYNRKFRDKATLTADKSSSTAYMQLTSLTYEDSAVYYCARGGNGYYFDYWGQGTTLTVSS
VL 1: B2 VL with N28D, S50W, Y53T, Y55H, S56T
VH 2: B2 VH 2
VL 2: DIVLTQSQKFMSTSVGDRVSITCKASQNVGTAVAWYQQKPGQSPKALIYSASYRYSGVPDRFTGSGSGTDFTLTISNVQSEDLAEYFCQQYNSYPLTFGAGTKLEIKR

The remaining lines, values behind:

B1: commonly shared L chain antibody of A44 H chain, B26 H chain and hybrid L chain BBA(G) (bispecific antibody, V domains shown)
VH 1: B4 VH 1
VH 2: B2 VH 2
VL: DIVMTQSHKFMSTSVGDRVSITCKASQNVGTAVAWYQQKPGQSPKLLIYSASYRYSGVPDRFTGSRYGTDFTLTISNVQSEDLADYLCQQYSNYITFGGGTKLELKRG
reduction of coagulation time against no antibody [1]: > 70 s

B3: commonly shared L chain antibody of A44 H chain, B26 H chain and hybrid L chain ABA(G) (bispecific antibody, V domains shown)
VH 1: B4 VH 1
VH 2: B2 VH 2
VL: B1 VL with N28D
reduction of coagulation time against no antibody [2]: ≥ 60 s | reduction of coagulation time against no antibody [1]: > 60 s

B5: bispecific antibody of A69H, B26H and hybrid L chain BBa (bispecific antibody, V domains shown)
VH 1: B2 VH 1
VH 2: B2 VH 2
VL: B2 VL with V15I, N93S, I95L
reduction of coagulation time against no antibody [2]: ≥ 80 s | reduction of coagulation time against no antibody [1]: > 80 s
